The values below come from article doi:10.1101/2025.08.05.25330579.

For one series, the target named is T1, RBM10 RRM2 R332C (UniProt P98175 300-384, R332C).
T1 sequence: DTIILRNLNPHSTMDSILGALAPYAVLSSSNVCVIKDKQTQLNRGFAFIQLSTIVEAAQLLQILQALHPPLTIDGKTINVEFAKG
Briefly: ITC and NMR.

In another series the target is T2, RBM10 RRM2 WT (UniProt P98175 300-384).
T2 sequence: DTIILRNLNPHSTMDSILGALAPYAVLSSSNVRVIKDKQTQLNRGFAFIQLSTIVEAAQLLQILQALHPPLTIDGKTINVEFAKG
Briefly: ITC. A general note: ITC needs no label: the signal is the heat of the interaction.

As for UUGUCUGCUCCC (ssRNA) [NUMB exon 12-derived 12mer RNA], the binding signal with RBM10 RRM2 R332C was > 20 fold reduced affinity vs WT. Further, the binding result with RBM10 RRM2 WT was “binds”.
